Drawing on US20220265806A1, this text covers EC50 for one substance.

The EC50 is the concentration that produces a half-maximal response. The low end stands for greater potency, the high end for weaker potency.

The target in this assay is E1′ (CHIKV E1 ectodomain construct) (Chikungunya virus).

In turn, chCHK-166^pMAZ (antibody) displayed an EC50 of 2.2 nM.
